Measured values as given in patent US10704030B2, “P450-BM3 variants with improved activity” (Codexis, Inc., priority 2015, dated 2020).

What was measured:
Format in all cases: biochemical
[1] = Validation of generalist properties: oxidation of loratadine by lyophilized P450-BM3 variant, UPLC-MS; settings: [Loratadine] = 1 mM
Outline: (§1)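 Lyophilized lysate of E. coli-expressed P450-BM3 variant (stock standardized to 12 μM heme) was incubated 24 h at 30 °C with 1 or 2 mM substrate, 1.0 mM NADP+, 25 mM glucose, 0.5 mg/mL glucose dehydrogenase and 5% DMSO in 100 mM potassium phosphate. Acetonitrile-quenched samples were analyzed by UPLC-MS (positive ESI).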

[2] = Validation of generalist properties: oxidation of imatinib by lyophilized P450-BM3 variant, UPLC-MS; settings: [Imatinib] = 1 mM
Outline: as §1

[3] = Validation of generalist properties: oxidation of diclofenac by lyophilized P450-BM3 variant, UPLC-MS; settings: [Diclofenac] = 1 mM
Outline: as §1

[4] = Validation of generalist properties: oxidation of gefitinib by lyophilized P450-BM3 variant, UPLC-MS; settings: [Gefitinib] = 1 mM
Outline: as §1

[5] = TON = [substrate]*% conversion/[P450]
[6] = fold improvement over parent MCYP-P1.2-B02

B1: Variant 9: P450-BM3 variant of SEQ ID NO: 8: Y52F; D232H; E349K; E619D; D722S; R762H (protein)
chain: MTIKEMPQPKTFGELKNLPLLNTDKPVQALMKIADELGEIFKFEAPGRVTRFLSSQRLIKEACDESRFDKNLSQALKFARDFAGDGLFTSWTHEKNWKKAHNILLPSFSQQAMKGYHAMMVDIAVQLVQKWERLNADEYIEVPEDMTRLTLDTIGLCGFNYRFNSFYRDQPHPFIISMIRALDEVMNKLQRANPDDPAYDENKRQFQEDIKVMNDLVDKIIADRKASGEQSHDLLTQMLNGKDPETGEPLDDGNISYQIITFLIAGHETTSGLLSFALYFLVKNPHVLQKVAEEATRVLVDPVPSYKQVKQLKYVGMVLNEALRLWPTAPAFSLYAKEDTVLGGEYPLKKGDEVMVLIPQLHRDKTIWGDDVEEFRPERFENPSAIPQHAFKPFGNGQRACIGQQFALHEATLVLGMMLKHFDFEDHTNYELDIKETLTLKPEGFVVKAKSKKIPLGGIPSPSTEQSAKKVRKKAENAHNTPLLVLYGSNMGTAEGTARDLADIAMSKGFAPQVATLDSHAGNLPREGAVLIVTASYNGHPPDNAKQFVDWLDQASADEVKGVRYSVFGCGDKNWATTYQKVPAFIDETLAAKGAENIADRGEADASDDFEGTYEEWRDHMWSDVAAYFNLDIENSEDNKSTLSLQFVDSAADMPLAKMHGAFSTNVVASKELQQPGSARSTRHLEIELPKEASYQEGDHLGVIPRNYEGIVNRVTARFGLSASQQIRLEAEEEKLAHLPLAKTVSVEELLQYVELQDPVTHTQLRAMAAKTVCPPHKVELEALLEKQAYKEQVLAKRLTMLELLEKYPACEMKFSEFIALLPSIRPRYYSISSSPRVDEKQASITVSVVSGEAWSGYGEYKGIASNYLAELQEGDTITCFISTPQSEFTLPKDPETPLIMVGPGTGVAPFRGFVQARKQLKEQGQSLGEAHLYFGCRSPHEDYLYQEELENAQSEGIITLHTAFSRMPNQPKTYVQHVMEQDGKKLIELLDQGAHFYICGDGSQMAPAVEATLMKSYADVHQVSEADARLWLQQLEEKGRYAKDVWAG
modifications: P450_BM3
notes: D232H; E349K; E619D; D722S; R762H
- % Conv. [1]: ++ (5.01-10.00)
- TON [1, 5]: ‡‡ (1001-5000)
- FIOPC (B02) [1, 6]: * (0.0-3.0)
- % Conv. [2]: ++++ (15.01-20.00)
- TON [2, 5]: ‡‡‡‡ (10000-50000)
- FIOPC (B02) [2, 6]: * (0.0-3.0)
- % Conv. [3]: ++++ (15.01-20.00)
- TON [3, 5]: ‡‡‡ (5001-10000)
- FIOPC (B02) [3, 6]: * (0.0-3.0)
- % Conv. [4]: + (0-5.00)
- TON [4, 5]: ‡ (0-1000)
- FIOPC (B02) [4, 6]: * (0.0-3.0)
